Experimental data from patent US20180155451A1 (published 2018).

T1: FcγRIIb, extracellular domain with C-terminal His tag (human, UniProt P31994 43-217)
T1 construct: extracellular domain; Soluble receptor expressed in FreeStyle293 cells; analyte in Biacore; also called FcgRIIb; 2b; not shown: C-terminal His tag
T1 sequence (looked up): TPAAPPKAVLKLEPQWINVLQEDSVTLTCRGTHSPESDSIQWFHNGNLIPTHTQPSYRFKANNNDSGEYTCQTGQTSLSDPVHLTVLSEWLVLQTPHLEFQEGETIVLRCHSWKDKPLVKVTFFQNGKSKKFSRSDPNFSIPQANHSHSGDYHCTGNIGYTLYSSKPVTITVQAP

T2: FcγRIIa H (FcγRIIa, type H allotype, His at position 131), extracellular domain with C-terminal His tag (human, UniProt P12318 34-217)
T2 construct: extracellular domain; Soluble receptor expressed in FreeStyle293 cells; analyte in Biacore; also called FcgRIIa H; 2aH; not shown: C-terminal His tag
T2 sequence (looked up): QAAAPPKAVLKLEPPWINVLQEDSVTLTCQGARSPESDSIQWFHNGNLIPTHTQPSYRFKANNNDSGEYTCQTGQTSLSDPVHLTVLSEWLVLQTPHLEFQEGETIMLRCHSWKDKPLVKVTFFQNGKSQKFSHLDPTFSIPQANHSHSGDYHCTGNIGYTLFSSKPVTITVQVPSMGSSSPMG

B1: GpH7-A5/GpH7-B3 variant E269_15Y/GpL16-k0 (antibody, human IgG1, kappa)
heavy 1: not shown
heavy 2: not shown
light: DIVMTQSPLSLPVTPGEPASISCQASESLVHSNRNTYLHWYLQKPGQSPQLLIYKVSNRFSGVPDRFSGSGSGTDFTLKISRVEAEDVGVYYCSQNTHVPPTFGQGTKVEIERTVAAPSVFIFPPSDEQLKSGTASVVCLLNNFYPREAKVQWKVDNALQSGNSQESVTEQDSKDSTYSLSSTLTLSKADYEKHKVYACEVTHQGLSSPVTKSFNRGEC
notes: Heterodimerized IgG1; mutation only in the GpH7-B3 chain; also called He Ab
B2: GpH7-A5/GpH7-B3 variant E269_18N/GpL16-k0 (antibody, human IgG1, kappa)
heavy 1: not shown
heavy 2: not shown
light: B1 light
notes: as for B1
B3: GpH7-A5/GpH7-B3 variant Q295_03V/GpL16-k0 (antibody, human IgG1, kappa)
heavy 1: not shown
heavy 2: not shown
light: B1 light
notes: as for B1
B4: GpH7-A5/GpH7-B3 variant Q295_07I/GpL16-k0 (antibody, human IgG1, kappa)
heavy 1: not shown
heavy 2: not shown
light: B1 light
notes: as for B1
B5: GpH7-A5/GpH7-B3 variant Q295_20W/GpL16-k0 (antibody, human IgG1, kappa)
heavy 1: not shown
heavy 2: not shown
light: B1 light
notes: as for B1
B6: GpH7-A5/GpH7-B3 variant S298_07I/GpL16-k0 (antibody, human IgG1, kappa)
heavy 1: not shown
heavy 2: not shown
light: B1 light
notes: as for B1
B7: GpH7-A5/GpH7-B3 variant Y300_03V/GpL16-k0 (antibody, human IgG1, kappa)
heavy 1: not shown
heavy 2: not shown
light: B1 light
notes: as for B1
B8: GpH7-A5/GpH7-B3 variant S298_14T/GpL16-k0 (antibody, human IgG1, kappa)
heavy 1: not shown
heavy 2: not shown
light: B1 light
notes: as for B1
B9: GpH7-A5/GpH7-B3 variant S298_03V/GpL16-k0 (antibody, human IgG1, kappa)
heavy 1: not shown
heavy 2: not shown
light: B1 light
notes: as for B1
B10: GpH7-A5/GpH7-B3 variant E269_16H/GpL16-k0 (antibody, human IgG1, kappa)
heavy 1: not shown
heavy 2: not shown
light: B1 light
notes: as for B1
B11: GpH7-A5/GpH7-B3 variant P271_20W/GpL16-k0 (antibody, human IgG1, kappa)
heavy 1: not shown
heavy 2: not shown
light: B1 light
notes: as for B1
B12: GpH7-A5/GpH7-B3 variant E269_20W/GpL16-k0 (antibody, human IgG1, kappa)
heavy 1: not shown
heavy 2: not shown
light: B1 light
notes: as for B1
B13: GpH7-A5/GpH7-B3 variant S298_20W/GpL16-k0 (antibody, human IgG1, kappa)
heavy 1: not shown
heavy 2: not shown
light: B1 light
notes: as for B1
B14: GpH7-A5/GpH7-B3 variant Q295_12R/GpL16-k0 (antibody, human IgG1, kappa)
heavy 1: not shown
heavy 2: not shown
light: B1 light
notes: as for B1
B15: GpH7-A5/GpH7-B3 variant S298_19Q/GpL16-k0 (antibody, human IgG1, kappa)
heavy 1: not shown
heavy 2: not shown
light: B1 light
notes: as for B1
B16: GpH7-A5/GpH7-B3 variant Y300_06M/GpL16-k0 (antibody, human IgG1, kappa)
heavy 1: not shown
heavy 2: not shown
light: B1 light
notes: as for B1
B17: GpH7-A5/GpH7-B3 variant S298_10E/GpL16-k0 (antibody, human IgG1, kappa)
heavy 1: not shown
heavy 2: not shown
light: B1 light
notes: as for B1
B18: GpH7-A5/GpH7-B3 variant Q295_16H/GpL16-k0 (antibody, human IgG1, kappa)
heavy 1: not shown
heavy 2: not shown
light: B1 light
notes: as for B1
B19: GpH7-A5/GpH7-B3 variant E269_19Q/GpL16-k0 (antibody, human IgG1, kappa)
heavy 1: not shown
heavy 2: not shown
light: B1 light
notes: as for B1
B20: GpH7-A5/GpH7-B3 variant Q295_11K/GpL16-k0 (antibody, human IgG1, kappa)
heavy 1: not shown
heavy 2: not shown
light: B1 light
notes: as for B1
B21: GpH7-A5/GpH7-B3 variant S298_18N/GpL16-k0 (antibody, human IgG1, kappa)
heavy 1: not shown
heavy 2: not shown
light: B1 light
notes: as for B1
B22: GpH7-A5/GpH7-B3 variant Y300_02A/GpL16-k0 (antibody, human IgG1, kappa)
heavy 1: not shown
heavy 2: not shown
light: B1 light
notes: as for B1
B23: GpH7-A5/GpH7-B3 variant Q295_13S/GpL16-k0 (antibody, human IgG1, kappa)
heavy 1: not shown
heavy 2: not shown
light: B1 light
notes: as for B1
B24: GpH7-A5/GpH7-B3 variant Y300_01G/GpL16-k0 (antibody, human IgG1, kappa)
heavy 1: not shown
heavy 2: not shown
light: B1 light
notes: as for B1
B25: GpH7-A5/GpH7-B3 variant P271_15Y/GpL16-k0 (antibody, human IgG1, kappa)
heavy 1: not shown
heavy 2: not shown
light: B1 light
notes: as for B1
B26: GpH7-A5/GpH7-B3 variant S298_16H/GpL16-k0 (antibody, human IgG1, kappa)
heavy 1: not shown
heavy 2: not shown
light: B1 light
notes: as for B1
B27: GpH7-A5/GpH7-B3 variant Q295_05P/GpL16-k0 (antibody, human IgG1, kappa)
heavy 1: not shown
heavy 2: not shown
light: B1 light
notes: as for B1

Biological target: T1, FcγRIIb, extracellular domain with …
Test: SPR (Biacore), captured antibody, FcγR as analyte

Row | Binder | He/Con_2b
1 | B1 | 44.7 relative, GpH7-A5/GpH7-B3/GpL16-k0 = 100
2 | B2 | 44.8 relative, GpH7-A5/GpH7-B3/GpL16-k0 = 100
3 | B3 | 75.7 relative, GpH7-A5/GpH7-B3/GpL16-k0 = 100
4 | B4 | 84.3 relative, GpH7-A5/GpH7-B3/GpL16-k0 = 100
5 | B5 | 44.4 relative, GpH7-A5/GpH7-B3/GpL16-k0 = 100
6 | B6 | 70.6 relative, GpH7-A5/GpH7-B3/GpL16-k0 = 100
7 | B7 | 73.9 relative, GpH7-A5/GpH7-B3/GpL16-k0 = 100
8 | B8 | 77.9 relative, GpH7-A5/GpH7-B3/GpL16-k0 = 100
9 | B9 | 64.5 relative, GpH7-A5/GpH7-B3/GpL16-k0 = 100
10 | B10 | 38.5 relative, GpH7-A5/GpH7-B3/GpL16-k0 = 100
11 | B11 | 58.1 relative, GpH7-A5/GpH7-B3/GpL16-k0 = 100
12 | B12 | 42.5 relative, GpH7-A5/GpH7-B3/GpL16-k0 = 100
13 | B13 | 41.1 relative, GpH7-A5/GpH7-B3/GpL16-k0 = 100
14 | B14 | 65.2 relative, GpH7-A5/GpH7-B3/GpL16-k0 = 100
15 | B15 | 73.3 relative, GpH7-A5/GpH7-B3/GpL16-k0 = 100
16 | B16 | 84.3 relative, GpH7-A5/GpH7-B3/GpL16-k0 = 100
17 | B17 | 47.6 relative, GpH7-A5/GpH7-B3/GpL16-k0 = 100
18 | B18 | 62.7 relative, GpH7-A5/GpH7-B3/GpL16-k0 = 100
19 | B19 | 44.3 relative, GpH7-A5/GpH7-B3/GpL16-k0 = 100
20 | B20 | 70.4 relative, GpH7-A5/GpH7-B3/GpL16-k0 = 100
21 | B21 | 48.1 relative, GpH7-A5/GpH7-B3/GpL16-k0 = 100
22 | B22 | 69.2 relative, GpH7-A5/GpH7-B3/GpL16-k0 = 100
23 | B23 | 56.9 relative, GpH7-A5/GpH7-B3/GpL16-k0 = 100
24 | B24 | 48.4 relative, GpH7-A5/GpH7-B3/GpL16-k0 = 100
25 | B25 | 52.3 relative, GpH7-A5/GpH7-B3/GpL16-k0 = 100
26 | B26 | 63.5 relative, GpH7-A5/GpH7-B3/GpL16-k0 = 100
27 | B27 | 67.5 relative, GpH7-A5/GpH7-B3/GpL16-k0 = 100

Biological target: T2, FcγRIIa H (FcγRIIa, type H allotype, …)
Test: SPR (Biacore), captured antibody, FcγR as analyte

Row | Binder | He/Con_2aH
28 | B1 | 70.4 relative, GpH7-A5/GpH7-B3/GpL16-k0 = 100
29 | B2 | 64.4 relative, GpH7-A5/GpH7-B3/GpL16-k0 = 100
30 | B3 | 92 relative, GpH7-A5/GpH7-B3/GpL16-k0 = 100
31 | B4 | 102 relative, GpH7-A5/GpH7-B3/GpL16-k0 = 100
32 | B5 | 55.6 relative, GpH7-A5/GpH7-B3/GpL16-k0 = 100
33 | B6 | 86.9 relative, GpH7-A5/GpH7-B3/GpL16-k0 = 100
34 | B7 | 98 relative, GpH7-A5/GpH7-B3/GpL16-k0 = 100
35 | B8 | 98.5 relative, GpH7-A5/GpH7-B3/GpL16-k0 = 100
36 | B9 | 85.1 relative, GpH7-A5/GpH7-B3/GpL16-k0 = 100
37 | B10 | 59 relative, GpH7-A5/GpH7-B3/GpL16-k0 = 100
38 | B11 | 77.4 relative, GpH7-A5/GpH7-B3/GpL16-k0 = 100
39 | B12 | 60.9 relative, GpH7-A5/GpH7-B3/GpL16-k0 = 100
40 | B13 | 49.9 relative, GpH7-A5/GpH7-B3/GpL16-k0 = 100
41 | B14 | 84.1 relative, GpH7-A5/GpH7-B3/GpL16-k0 = 100
42 | B15 | 91 relative, GpH7-A5/GpH7-B3/GpL16-k0 = 100
43 | B16 | 105 relative, GpH7-A5/GpH7-B3/GpL16-k0 = 100
44 | B17 | 58 relative, GpH7-A5/GpH7-B3/GpL16-k0 = 100
45 | B18 | 78.6 relative, GpH7-A5/GpH7-B3/GpL16-k0 = 100
46 | B19 | 80.2 relative, GpH7-A5/GpH7-B3/GpL16-k0 = 100
47 | B20 | 89.4 relative, GpH7-A5/GpH7-B3/GpL16-k0 = 100
48 | B21 | 61.6 relative, GpH7-A5/GpH7-B3/GpL16-k0 = 100
49 | B22 | 93.5 relative, GpH7-A5/GpH7-B3/GpL16-k0 = 100
50 | B23 | 69.4 relative, GpH7-A5/GpH7-B3/GpL16-k0 = 100
51 | B24 | 74.4 relative, GpH7-A5/GpH7-B3/GpL16-k0 = 100
52 | B25 | 64.6 relative, GpH7-A5/GpH7-B3/GpL16-k0 = 100
53 | B26 | 82.1 relative, GpH7-A5/GpH7-B3/GpL16-k0 = 100
54 | B27 | 103 relative, GpH7-A5/GpH7-B3/GpL16-k0 = 100

Biological target: T2, FcγRIIa H (FcγRIIa, type H allotype, …)
Test: ratio of He/Con_2aH to He/Con_2b (FcγRIIa H over FcγRIIb), SPR

Row | Binder | He_2aH/2b (IIaH/IIb)
55 | B1 | 1.57
56 | B2 | 1.44
57 | B3 | 1.22
58 | B4 | 1.21
59 | B5 | 1.25
60 | B6 | 1.23
61 | B7 | 1.33
62 | B8 | 1.26
63 | B9 | 1.32
64 | B10 | 1.53
65 | B11 | 1.33
66 | B12 | 1.43
67 | B13 | 1.21
68 | B14 | 1.29
69 | B15 | 1.24
70 | B16 | 1.24
71 | B17 | 1.22
72 | B18 | 1.25
73 | B19 | 1.81
74 | B20 | 1.27
75 | B21 | 1.28
76 | B22 | 1.35
77 | B23 | 1.22
78 | B24 | 1.54
79 | B25 | 1.24
80 | B26 | 1.29
81 | B27 | 1.53
